Measurements from publication PMC9342713.

Target: T1, DitR (Stenotrophomonas maltophilia K279a) (UniProt B2FL17)
T1 sequence: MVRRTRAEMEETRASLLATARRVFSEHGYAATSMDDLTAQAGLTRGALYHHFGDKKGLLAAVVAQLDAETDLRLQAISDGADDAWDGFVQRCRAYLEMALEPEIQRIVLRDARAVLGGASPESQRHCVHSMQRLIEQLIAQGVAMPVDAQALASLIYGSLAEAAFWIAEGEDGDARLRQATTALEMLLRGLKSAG
Assay: DNase I footprinting

Row | Sequence | binding
1 | GGGGGCGGCGAACAGGTCGCGGTAGGGGGTGGCCATCGGGATCTCCAGGGCAGCGGCTTGCCTGGCGCTCCCGGCGCCACGACAATACATACAGAGCGTATGAATAAGAGCCTACATTCATACGCGTCGTATGTAAATAATCATGCACTGCGTATGTAAGGAGCTCCGGATGGTCCGTCGCACCCGCGCCGAAATGGAAGAAAC (double strand) [mfsBC promoter fragment, 204 bp, Box II] | binds
2 | GGGGGCGGCGAACAGGTCGCGGTAGGGGGTGGCCATCGGGATCTCCAGGGCAGCGGCTTGCCTGGCGCTCCCGGCGCCACGACAATACATACAGAGCGTATGAATAAGAGCCTACATTCATACGCGTCGTATGTAAATAATCATGCACTGCGTATGTAAGGAGCTCCGGATGGTCCGTCGCACCCGCGCCGAAATGGAAGAAAC (double strand) [mfsBC promoter fragment, 204 bp, Box I] | binds
